1 protein from US20110123511 can be followed below.

Series [1] deals with GST-fusion histone H3 peptide (residues 1-57), K27R mutant [GST: P08515].
The target of series [2] is GST-fusion histone H3 peptide (residues 1-57), wild-type.
The target in series [3] is H3 peptide containing residues 15-30.
Series [4] concerns the target core histone H2A.
The target of series [5] is core histone H2B.
In series [6] the target is core histone H4.
For series [7], the target named is full-length free histone H3 (individual core histone).
Series [8] addresses peptide containing H3 residues 1-20.

B1: recombinant wild-type vSET expressed in E. coli BL21 (protein)
chain: MFNDRVIVKKSPLGGYGVFARKSFEKGELVEECLCIVRHNDDWGTALEDYLFSRKNMSAMALGFGAIFNHSKDPNARHELTAGLKRMRIFTIKPIAIGEEITISYGDDYWLSRPRLTQN
As to B1, the “methylation assay (methyl transfer from 14C-methyl-SAM)” value in series [1] and in series [2] was “The methylation assay showed that vSET was only active when H3 contained K27” each time. For the same protein, the “methylation activity with H3 peptides (14C-methyl-SAM)” value in series [3] is “Like vSET, these viral SET proteins only methylated a H3 peptide containing residues 15-30 but not a peptide containing H3 residues 1-20”; in series [8], “Like vSET, these viral SET proteins only methylated a H3 peptide containing residues 15-30 but not a peptide containing H3 residues 1-20”. The histone methyltransferase activity entry in series [4] is “confirming its activity for full-length free H3 and H3 within the nucleosome, but not other core histones”; in series [5], “confirming its activity for full-length free H3 and H3 within the nucleosome, but not other core histones”; in series [6], “confirming its activity for full-length free H3 and H3 within the nucleosome, but not other core histones”; in series [7] it was “confirming its activity for full-length free H3 and H3 within the nucleosome, but not other core histones”.
